From article PMC6936856

B1: DH501 IgG1 (antibody, V domains shown)
VH: QVTLKEFGPALVKPTQPLTLTCSFSGFSLRSSDTAVVWIRQPPGKALEWLAAIYWDDVEHINPSLKSRLSISKDSPNSLVVLTMANMDPVDTATYYCGRVRFVSGGYYTDRIDSWGPGLLVTVSS
VL: QSVLTQPPSVSGAPGQRVTISCAGTKSNIGDCSVSWYQQLPGATPRLLIYQNNNRPSGVSDRFSGSKSGTSASLAITGLQTEDEADYFCLSYDTSFSGWRFGGGTRLTVL
B2: DH501 with HFWR4 somatic mutations reverted to the UCA sequence (antibody, V domains shown)
VH: QVTLKEFGPALVKPTQPLTLTCSFSGFSLRSSDTAVVWIRQPPGKALEWLAAIYWDDVEHINPSLKSRLSISKDSPNSLVVLTMANMDPVDTATYYCGRVRFVSGGYYTDRIDSWGQGVLVTVSS
VL: QSVLTQPPSVSGAPGQRVTISCAGTKSNIGDCSVSWYQQLPGATPRLLIYQNNNRPSGVSDRFSGSKSGTSASLAITGLQTEDEADYFCLSYDTSFSGWRFGGGTRLTVL
B3: DH501 H/UCA L chimeric antibody (antibody, V domains shown)
VH: QVTLKEFGPALVKPTQPLTLTCSFSGFSLRSSDTAVVWIRQPPGKALEWLAAIYWDDVEHINPSLKSRLSISKDSPNSLVVLTMANMDPVDTATYYCGRVRFVSGGYYTDRIDSWGPGLLVTVSS
VL: QSVLTQPPSVSGAPGQRVTISCTGSSSNIGGYYVSWYQQLPGTTPKLLIYQDNKRPSGVSDRFSGSKSGTSASLTITGLQTEDEADYYCLSYDTSFSGWRFGGGTRLTVL

Experiments:
[1] = target: JR-FL Env gp160 on pseudovirus (HIV-1 (JR-FL)) (UniProt Q75760)
[2] = target: JR-FL Env gp160 on pseudovirus (HIV-1 (JR-FL)) (UniProt Q75760); remark: listed apart in the source

Row | Binder | IC50 of neutralisation of kifunensine-treated (Man9GlcNAc2-enriched) JR-FL pseudovirus, TZM-bl cells [1] | IC50 of neutralisation of kifunensine-treated JR-FL, TZM-bl cells [2]
1 | B1 | 0.09 µg/mL | 
2 | B2 |  | 4.34 µg/mL
3 | B3 | 0.06 µg/mL | 
